We go through seven molecules from patent US20230035798A1 (CAPELLA BIOSCIENCE, published 2023).

Changes are numbered by the printed parent chain.

To fix the notation:
T1: membrane LIGHT S193A (human, UniProt O43557 1-240)
T1 chain: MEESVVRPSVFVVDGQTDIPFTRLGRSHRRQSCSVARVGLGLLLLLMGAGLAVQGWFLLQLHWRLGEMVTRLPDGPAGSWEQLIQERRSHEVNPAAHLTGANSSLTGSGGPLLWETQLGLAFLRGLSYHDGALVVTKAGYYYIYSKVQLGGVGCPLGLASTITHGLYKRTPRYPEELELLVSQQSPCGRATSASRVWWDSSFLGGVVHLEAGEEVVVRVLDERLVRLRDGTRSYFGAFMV

T2: membrane LIGHT S192A (human, UniProt O43557 1-240)
T2 chain: T1 chain with S192A, A193S

T3: membrane LIGHT T191A (human, UniProt O43557 1-240)
T3 chain: T1 chain with T191A, A193S

T4: membrane LIGHT R195A (human, UniProt O43557 1-240)
T4 chain: T1 chain with A193S, R195A

T5: membrane LIGHT W197A (human, UniProt O43557 1-240)
T5 chain: T1 chain with A193S, W197A

T6: membrane LIGHT S194A (human, UniProt O43557 1-240)
T6 chain: T1 chain with A193S, S194A

T7: membrane LIGHT G188A (human, UniProt O43557 1-240)
T7 construct: full-length LIGHT with the substitution on HEK293FF cells
T7 chain: T1 chain with G188A, A193S

B1: 2E08 (antibody, human IgG4, V domains shown)
VH: QVQMKESGAELVRPGVSVKISCKGSGYTFTDYAIHWVKQSHAKTLEWIGVISTYYGDASYNQKFKGKATMTVDKSSSTAYMELARLTSDDSAIYYCARSRGEYGNYDAMDYWGQGTSVTVSS
VL: DIVLTQSPASLAVSLGQRATISCKASQSVDYDGDSYMNWYQQKPGQPPKLLIYAASNLESGIPARFSGSGSGTDFTLNIHPVEEEDAATYYCQQSNEDPLTFGAGTKLELK
notes: chimeric human IgG4 (S-to-P, L-to-E at 248), human CL; also called Parental 2E08
B2: 2B11 (antibody, human IgG4, V domains shown)
VH: B1 VH with Q1E, M4L, K5V, T44S, D89E
VL: DIVLTQSPASLAVSLGQRATISCRASESVDSYGNSFMHWYQQKPGQPPKLLIYRASNLESGIPARFSGSGSRTDFTLTINPVEADDVATYYCQQSNEDPYTFGGGTKLEIK
notes: chimeric human IgG4 (S-to-P, L-to-E at 248), human CL; also called Parental 2B11
B3: 3A07 (antibody, human IgG4, V domains shown)
VH: QVQLQQSGAELVRPGAPVTLSCKASDYTFTDSEIHWVKQTPVHGLEWIGEIDPETGGTAYNQKFKGKATLTADKSSSTAYMELRSLTSEDSAVYYCSRETDYFFDYWGQGTTLTVSS
VL: ENVLTQSPAIMSASPGEKVTMTCSASSSVSYMYWYQQRPGSSPRLLIYDTSNLASGVPVRFSGSGSGTSYSLTISRMEAEDAATYYCQQWSSYPLTFGSGTKLEIK
notes: chimeric human IgG4 (S-to-P, L-to-E at 248), human CL; also called Parental 3A07
B4: 3B04 (antibody, human IgG4, V domains shown)
VH: B3 VH with S7P, P17S, D26G, S32Y, I34M, G57D, N61S, L83F
VL: DIQMTQTPASLSASVGETVTITCGASENIYGALNWYQRKQGKSPQLLIYGATNLADGMSSRFSGSGSGRQYSLKISSLHPDDFATYYCQNVLTTPWTFGGGTKLEIKR
notes: chimeric: mouse variable domains on human IgG4 HC (S-to-P and L-to-E at 248) and human CL; also called Parental 3B04; 3B04 chimeric
B5: 3C10 (antibody, human IgG4, V domains shown)
VH: B3 VH with Q1E, P17S
VL: B3 VL with E1D, N2V, L4M, S7T, R38K, S99A, I105L
notes: chimeric human IgG4 (S-to-P, L-to-E at 248), human CL; also called Parental 3C10
B6: 3D12 (antibody, human IgG4, V domains shown)
VH: B3 VH with S7P, P17S
VL: B4 VL with T7S, F83V, T93S
notes: chimeric: mouse variable domains on human IgG4 HC (S-to-P and L-to-E at 248) and human CL; also called Parental 3D12; 3D12 chimeric
B7: 3E09 (antibody, V domains shown)
VH: EVQLVESGGGLVKPGGSLKLSCEASGFTFSDYYMYWVRQTPEKRLEWVAAIGDGGIYTYYADTVKGRFTISRDNAKNILYLQMSSLKSNDTAMYYCARGTGDGFAYWGQGTLVTVS
VL: B2 VL with R54L, I62V, N80D, V87A, S95N
notes: chimeric human IgG4 (S-to-P, L-to-E at 248), human CL; also called Parental 3E09

For the first assay, the target named is T1, membrane LIGHT S193A. Nature of the assay: flow cytometry, transfected HEK293FF, mAb at EC50. How it is done:
(§1) The day of transfection the cells were seeded in a 24-well plate at 0.6×10⁶ cells/well. Lipofectamine 2000 (ThermoFisher scientific), 3 μl, was mixed with 50 μl OptiMEM medium (GIBCO) and then added to 50 μl Opti-MEM medium containing 3 ug plasmid DNA and incubated for 20 min at RT to form DNA-Lipofectamine 2000 complexes which were then added to the HEK293FF cells and incubated at 37° C., 5% CO₂ for 24 hours. For each construct, in duplicate, 0.60×10⁶ cells/well were used in a 96 well round bottom plate. Cells were centrifuged for 3 minutes at 300×g at 4° C., the supernatant discarded and the cells washed with 150 μl FACS buffer (0.5% FBS in phosphate buffered saline). This process was repeated 3 times. […] The wells were washed 3 times as above and 50 μl/well of goat anti-human IgG FITC (1:1500 dilution in FACS buffer, SIGMA F9512-2ML) or goat anti-mouse APC (1/500 dilution in FACS buffer, BDBioscience 550826), as appropriate, was added to the wells and incubated for 30 min at 4° C. protected from the light, with shaking. The cells were then washed as above, resuspended in 100 μl of FACS buffer and binding of the antibodies to the constructs was measured using flow cytometry and a total of 10,000 cells were acquired for each sample. Controls of buffer and secondary antibody only as well as HEK293FF non transfected cells were also used.
(In general: Flow cytometry measures light scatter and fluorescence of single cells or particles in a stream.)
Turning to B1, the “binding, % of WT” value turned out to be 0%.

In the case of B2, the “binding, % of WT” value turned out to be 0%.

On to B3, for which the “binding, % of WT” value is 0%.

For B4, the “binding, % of WT” value came out at 0%.

For the molecule B5, the “binding, % of WT” value is 0%.

As for B6, the “binding, % of WT” value is 0%.

Regarding B7, the “binding, % of WT” value was determined as 0%.

The next assay concerns the target T2, membrane LIGHT S192A. Nature of the assay: flow cytometry, transfected HEK293FF, mAb at EC50. The protocol:
as §1
For the molecule B1, the “binding, % of WT” value is 122%.

Turning to B2, the “binding, % of WT” value stood at 96%.

For B3, the “binding, % of WT” value came out at 41%.

Consider B4, for which the “binding, % of WT” value was found to be 88%.

Turning to B5, the “binding, % of WT” value came to 35%.

Regarding B6, the “binding, % of WT” value worked out at 84%.

Turning to B7, the “binding, % of WT” value stood at 50%.

A further assay deals with T3, membrane LIGHT T191A. Nature of the assay: flow cytometry, transfected HEK293FF, mAb at EC50. How it is done:
as §1
B1: the “binding, % of WT” value stood at 22%.

For the molecule B2, the “binding, % of WT” value was 1%.

With B3, the “binding, % of WT” value stood at 4%.

Consider B4, for which the “binding, % of WT” value came out at 2%.

Turning to B5, the “binding, % of WT” value came out at 3%.

As to B6, the “binding, % of WT” value is 8%.

For the molecule B7, the “binding, % of WT” value is 88%.

The target of a further assay is T4, membrane LIGHT R195A. Nature of the assay: flow cytometry, transfected HEK293FF, mAb at EC50. How it is done: as §1
As to B1, the “binding, % of WT” value came out at 43%.

With B2, the “binding, % of WT” value came out at 78%.

Take B3: the “binding, % of WT” value was 15%.

For the molecule B4, the “binding, % of WT” value was found to be 1%.

Regarding B5, the “binding, % of WT” value worked out at 6%.

Turning to B6, the “binding, % of WT” value is 25%.

Regarding B7, the “binding, % of WT” value worked out at 1%.

Another assay has as its target T5, membrane LIGHT W197A. Put plainly: flow cytometry, transfected HEK293FF, mAb at EC50. How it is done:
as §1
With B1, the “binding, % of WT” value is 0%.

Regarding B2, the “binding, % of WT” value turned out to be 0%.

Take B3: the “binding, % of WT” value was determined as 1%.

In the case of B4, the “binding, % of WT” value was 0%.

As to B5, the “binding, % of WT” value was determined as 0%.

With B6, the “binding, % of WT” value amounted to 1%.

Consider B7, for which the “binding, % of WT” value was found to be 1%.

For the next assay, the target named is T6, membrane LIGHT S194A. Put plainly: flow cytometry, transfected HEK293FF, mAb at EC50. The protocol: as §1
Consider B1, for which the “binding, % of WT” value turned out to be 3%.

For the molecule B2, the “binding, % of WT” value was 0%.

Consider B3, for which the “binding, % of WT” value was 1%.

Consider B4, for which the “binding, % of WT” value was 0%.

Take B5: the “binding, % of WT” value was 0%.

For B6, the “binding, % of WT” value came out at 2%.

As to B7, the “binding, % of WT” value turned out to be 1%.

A further assay concerns the target T7, membrane LIGHT G188A. Nature of the assay: flow cytometry, transfected HEK293FF, mAb at EC50. The protocol:
as §1
Turning to B1, the “binding, % of WT” value was found to be 44%.

Take B2: the “binding, % of WT” value amounted to 3%.

In the case of B3, the “binding, % of WT” value was 5%.

Turning to B4, the “binding, % of WT” value amounted to 6%.

For the molecule B5, the “binding, % of WT” value amounted to 3%.

Regarding B6, the “binding, % of WT” value stood at 20%.

As for B7, the “binding, % of WT” value turned out to be 35%.
